# Data from patent publication US7105290 (PROCTER AND GAMBLE, dated 2006).
# T1: mouse BMP receptor kinase protein m-BRK-3 (mouse), O35607
# T1 chain: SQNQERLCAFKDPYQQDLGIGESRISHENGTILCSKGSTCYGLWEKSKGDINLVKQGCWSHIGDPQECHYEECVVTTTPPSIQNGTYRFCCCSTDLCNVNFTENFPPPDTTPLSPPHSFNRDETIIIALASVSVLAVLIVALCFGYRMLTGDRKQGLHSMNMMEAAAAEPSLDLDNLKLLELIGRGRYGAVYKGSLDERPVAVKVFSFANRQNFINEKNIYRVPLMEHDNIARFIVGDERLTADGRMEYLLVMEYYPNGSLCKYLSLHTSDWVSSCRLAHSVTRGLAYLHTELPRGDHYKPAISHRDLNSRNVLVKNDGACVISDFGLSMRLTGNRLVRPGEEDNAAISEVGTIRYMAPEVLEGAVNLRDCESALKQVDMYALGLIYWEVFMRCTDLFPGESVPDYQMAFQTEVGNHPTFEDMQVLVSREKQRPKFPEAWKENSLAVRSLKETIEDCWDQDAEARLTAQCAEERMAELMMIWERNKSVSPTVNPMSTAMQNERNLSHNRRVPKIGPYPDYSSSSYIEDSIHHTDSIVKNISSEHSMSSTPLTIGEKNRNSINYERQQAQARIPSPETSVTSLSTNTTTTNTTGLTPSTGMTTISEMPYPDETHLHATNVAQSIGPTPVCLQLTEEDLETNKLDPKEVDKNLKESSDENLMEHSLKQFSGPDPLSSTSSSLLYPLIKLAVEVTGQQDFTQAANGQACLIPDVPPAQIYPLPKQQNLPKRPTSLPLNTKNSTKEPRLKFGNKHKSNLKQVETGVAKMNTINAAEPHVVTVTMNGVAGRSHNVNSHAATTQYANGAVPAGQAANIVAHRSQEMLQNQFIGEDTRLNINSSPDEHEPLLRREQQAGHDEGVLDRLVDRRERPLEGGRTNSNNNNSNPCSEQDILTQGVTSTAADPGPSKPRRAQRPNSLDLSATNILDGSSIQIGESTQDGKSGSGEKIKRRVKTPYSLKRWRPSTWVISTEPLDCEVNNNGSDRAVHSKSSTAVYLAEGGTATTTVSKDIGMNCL
# Tests used:
# [1] = target: T1, mouse BMP receptor kinase protein …; test: whole cell binding of radiolabeled ligand, COS-1 cells transfected with pJT6-mBRK-3S or pJT6-mBRK-3L; conditions: remark: other sources report otherwise; scale: times the level seen with mock transfected cells
# [2] = target: T2, BRK-2 co-expressed with t-BRK-3 (BRK-2/t-BRK-3 complex) (chicken; human, UniProt Q05438 14-502; Q13873 27-540); test: competition, 10 nM unlabeled ligand against [^125I]-BMP-4; crosslinking and immunoprecipitation with antiserum 1380
# T2 construct: Both receptors co-transfected into COS cells; also called BRK-2 and BRK-3 receptor complex; BRK-2 plus t-BRK-3
# T2 sequence (Q05438 14-502 limits assumed, one chain of several): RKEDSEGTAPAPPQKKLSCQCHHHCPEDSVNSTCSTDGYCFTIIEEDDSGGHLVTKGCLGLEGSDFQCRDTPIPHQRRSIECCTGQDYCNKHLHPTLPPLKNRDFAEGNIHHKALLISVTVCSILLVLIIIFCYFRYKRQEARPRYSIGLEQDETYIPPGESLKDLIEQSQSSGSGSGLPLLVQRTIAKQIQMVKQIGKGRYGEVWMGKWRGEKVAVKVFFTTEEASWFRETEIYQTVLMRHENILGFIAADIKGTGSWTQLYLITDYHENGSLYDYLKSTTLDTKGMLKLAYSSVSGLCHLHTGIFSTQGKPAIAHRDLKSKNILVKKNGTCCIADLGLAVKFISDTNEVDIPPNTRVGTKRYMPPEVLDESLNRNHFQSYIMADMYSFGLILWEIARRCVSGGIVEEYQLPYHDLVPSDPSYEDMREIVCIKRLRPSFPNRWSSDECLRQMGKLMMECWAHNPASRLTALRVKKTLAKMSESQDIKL
# Procedure: Following the crosslinking, cells are washed three times with ice-cold PBS, then lysed with 1 ml of RIP buffer (20 mM TrisCl, pH 8.0, 100 mM NaCl, 1 mM Na_2EDTA, 0.5% Nonidet P-40, 0.5% sodium deoxycholate, 10 mM sodium iodide, and 1% bovine serum albumin) for 10 min. The lysate is centrifuged in a microcentrifuge at 13,000 rpm for 10 min at 4° C. The supernatant is transferred to a fresh tube and made 0.1% in SDS. To remove any existing antibody present in the lysate, 50 µl of PANSORBIN (Calbiochem, La Jolla, Calif.; a 10% solution of *Staphylococcus aureus*) is added. After a 30 minute incubation at 4° C., the lysate is centrifuged as before, and the supernatant again transferred to a fresh tube.
# To precipitate the complex of antigen:primary antibody, 25–50 µl of PANSORBIN is then added and incubated 30 min on ice. The complex is pelleted at 13,000 rpm for 10 min in a microcentrifuge and the supernatant discarded. The pellet is washed twice in RIP buffer containing 0.1% SDS, and once in TNEN buffer (20 mM Tris, pH 8.0, 100 mM NaCl, 1 mM EDTA, 0.5% NP-40). The pellet is resuspended in 25 µl of 1× sample loading buffer. (Alternatively, the pellet may be washed twice with TNEN buffer, with similar results.) The sample is boiled for 5 min, centrifuged for 5 min, and subjected to gel electrophoresis after loading of the samples onto a 7.5% SDS-polyacrylamide gel.
specific binding of [^125I]-BMP-4 relative to mock transfected cells [1],binding result [2],Binder
4 to 7,,"bone morphogenetic protein 4, P12644 293-408 (ligand, UniProt P12644 293-408, looked up, here or on the partner: 125I-labelled when used as tracer ([^125I]-BMP-4; IODOBEADS or chloramine-T method); unlabeled when used as competitor) SPKHHSQRARKKNKNCRRHSLYVDFSDVGWNDWIVAPPGYQAFYCHGDCPFPLADHLNSTNHAIVQTLVNSVNSSIPKACCVPTELSAISMLYLDEYDKVVLKNYQEMVVEGCGCR"
,binds,"bone morphogenetic protein 2 (ligand, UniProt P12643 283-396, looked up, also called BMP-2) QAKHKQRKRLKSSCKRHPLYVDFSDVGWNDWIVAPPGYHAFYCHGECPFPLADHLNSTNHAIVQTLVNSVNSKIPKACCVPTELSAISMLYLDENEKVVLKNYQDMVVEGCGCR"
